Measured values: patent US20160362487A1 (Regeneron, published 2016)

T1: human IL-33 (R&D Systems, #3625-IL-010/CF) (human, UniProt O95760 112-270)
T1 construct: Commercial recombinant protein; also called hIL-33; interleukin-33
T1 sequence (looked up): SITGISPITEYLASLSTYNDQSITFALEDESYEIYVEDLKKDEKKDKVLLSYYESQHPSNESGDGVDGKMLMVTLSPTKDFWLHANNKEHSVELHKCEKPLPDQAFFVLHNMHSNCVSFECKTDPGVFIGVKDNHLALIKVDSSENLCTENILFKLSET

T2: cynomolgus monkey IL-33 expressed with a C-terminal hexahistidine tag (cynomolgus monkey)
T2 construct: also called MfIL-33-6His; Mf-IL-33-6His
T2 chain: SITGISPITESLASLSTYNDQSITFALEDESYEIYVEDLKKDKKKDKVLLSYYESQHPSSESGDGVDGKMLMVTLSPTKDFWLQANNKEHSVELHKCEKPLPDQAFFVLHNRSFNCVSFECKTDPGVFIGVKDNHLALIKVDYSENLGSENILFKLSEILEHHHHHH

T3: biotinylated hIL-33 protein (R&D systems, Cat #3625-IL/CF) (human, UniProt O95760 112-270, biotinylated (sites not given))
T3 construct: Same commercial protein as m21, biotin-labelled; also called biotin-hIL-33
T3 sequence (looked up): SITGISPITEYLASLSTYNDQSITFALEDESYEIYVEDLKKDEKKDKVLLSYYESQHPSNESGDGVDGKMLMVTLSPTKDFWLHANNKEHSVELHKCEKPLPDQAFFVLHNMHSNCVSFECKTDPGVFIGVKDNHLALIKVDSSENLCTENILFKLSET


How the values were obtained:
[1] = target: T1, human IL-33 (R&D Systems, …); assay: SPR 37C pH7.4, mAb captured
Description: (§1) Equilibrium dissociation constants (KD values) for IL-33 binding to purified anti-IL-33 monoclonal antibodies were determined using a real-time surface plasmon resonance biosensor using a Biacore 4000 instrument. The Biacore sensor surface was first derivatized by amine coupling with either a polyclonal rabbit anti-mouse antibody (GE, # BR-1008-38) or with a monoclonal mouse anti-human Fc antibody (GE, # BR-1008-39) to capture anti-IL-33 monoclonal antibodies expressed with mouse or with human IgG4 constant regions, respectively. All Biacore binding studies were performed in 0.01M ADA pH 7.4, 0.15M NaCl, 3 mM EDTA, and 0.05% v/v Surfactant Tween-20 (ABS-ET running buffer). […] Association of either hIL-33 or MfIL-33-6His to the captured monoclonal antibody was monitored for 4 minutes and their dissociation in ABS-ET running buffer was monitored for 10 minutes. The effect of reduced pH on the binding of each anti-IL-33 antibody to either hIL-33 or MfIL-33-6His was studied using an in-line pH chase assay format in 0.01M ADA pH 6.0, 0.15M NaCl, 3 mM EDTA, and 0.05% v/v Surfactant Tween-20 (ABS-ET pH6 buffer). To achieve this, association of either hIL-33 or MfIL-33-6His to the captured monoclonal antibody was monitored for 4 minutes in ABS-ET running buffer. Following a 30 second dissociation of either hIL-33 or MfIL-33-6His in ABS-ET running buffer, ABS-ET pH6 buffer was injected for 3 minutes, and the analyte dissociation under the low-pH conditions was measured. All the binding kinetic experiments were performed at both 25° C. and 37° C. Kinetic association (kₐ) and dissociation (kd) constants were determined by fitting the real-time sensorgrams to a 1:1 binding model using Scrubber 2.0c curve fitting software. Binding dissociation equilibrium constants (KD) and dissociative half-lives (t½) were calculated from the kinetic rate constants as: […]

[2] = target: T2, cynomolgus monkey IL-33 expressed with …; assay: SPR 37C pH7.4, mAb captured
Description: as §1

[3] = target: T1, human IL-33 (R&D Systems, …); assay: BLI; hIL-33 pre-mixed with mAb-2 H1M9565N
Description: Binding competition between a panel of different anti-IL-33 monoclonal antibodies was determined using a real time, label-free bio-layer interferometry assay on an Octet® HTX biosensor (ForteBio, A Division of Pall Life Sciences). The experiment was performed at 25° C. using a buffer of 0.01M HEPES pH7.4, 0.15M NaCl, 0.05% v/v Surfactant Tween-20, and 0.1 mg/ml BSA (HBS-ET kinetics buffer) with the plate shaking at a speed of 1000 rpm. To assess whether two antibodies were able to compete with one another for binding to human IL-33, a pre-mix assay format was used where 100 nM of human IL-33 (R&D Systems; #3625-IL-010/CF) was pre-mixed with 500 nM of different anti-IL-33 monoclonal antibodies (subsequently referred to as mAb-2) for at least 2 hours prior to running the binding competition assay. […] Following the capture step, unoccupied anti-mouse Fc polyclonal antibody and anti-human Fc polyclonal antibody on the Octet biosensors were saturated by submerging them for 4 minutes into wells containing 200 μg/mL of a non-specific monoclonal antibody with a mouse Fc or with a human Fc, respectively. Finally, the Octet biosensors were immersed for 4 minutes into wells containing the pre-mixed samples of 100 nM of human IL-33 and 500 nM of mAb-2. At the end of each cycle, the non-covalently captured anti-IL-33 antibodies along with the bound pre-complex of human IL-33 and mAb-2 were removed from the biosensors using three alternate 20 second immersions into 10 mM HCl followed by submerging into HBS-ET kinetics buffer. The biosensors were washed in HBS-ET kinetics buffer in between every step of the experiment. The real-time binding response was monitored during the binding events, and the binding response (in units of nm) at the end of every step was recorded.

[4] = target: T3, biotinylated hIL-33 protein (R&D …); assay: competition ELISA, 30 pM biotin-hIL-33 on coated hST2-hFc
Description: The ability of anti-IL-33 antibodies to block either human IL-33 (hIL-33) or cynomologus monkey IL-33 binding to the human ST2 receptor was measured using a competition sandwich ELISA. […] The antibody/IL-33 mixtures were incubated for 1 hour at room temperature before they were transferred to the hST2-hFc-coated microtiter plates. After incubating for 1 hour at room temperature, the wells were then washed, and plate-bound biotin-hIL-33 was detected with streptavidin conjugated with horse-radish peroxidase (HRP) (Thermo Scientific, Cat # N200), and plate-bound MfIL-33-6His was detected with a HRP conjugated anti-His monoclonal antibody (Qiagen, #34460). All samples were developed with a TMB solution (BD biosciences, #51-2607KC) to produce a colorimetric reaction and then quenched by acidification with 1M sulfuric acid before measuring absorbance at 450 nm on a Victor X5 plate reader. Data analysis was performed using a sigmoidal dose-response model within Prism™ software. […] Percent blockade was calculated as the ratio of the reduction in signal observed in the presence of antibody relative to the difference between the signal with IL-33 alone and background (signal from HRP-conjugated secondary antibody or streptavidin alone). The absorbance measured for the constant concentration of biotin-hIL-33 or MfIL-33-6His alone is defined as 0% blocking and the absorbance measured for no added IL-33 is defined as 100% blocking.

Binder | Kd [1] [nM] | koff [1] [s⁻¹] | kon [1] [M⁻¹ s⁻¹] | t½ [1] [min] | Kd [2] [nM] | koff [2] [s⁻¹] | kon [2] [M⁻¹ s⁻¹] | t½ [2] [min] | mAb-1 Binding to the Pre-complex of mAb-2 & hIL-33 [3] [nm] | % Maximum blocking [4] [%] | IC50 [4] [nM]
H4H9670P (antibody, V domains shown, Human IgG4 Fc (H4H)) VH: EVQLVESGGGLVQPGGSLRLSCAASGFTLSSYAMSWVRQAPGKGLEWVSAISGSGGSTYYADSVKGRFTISRDNSKNSLYLQLNSLRAEDTAVYYCAKTLYTTSWYGGFQHWGQGTLVTVSS VL: DIQMTQSPSSVSASIGDRVTITCRASQGISSWLAWYQQKPGKVPKLLIYAASSLQSGFPSRFSGSGSGTDFTLTISSLQPEDFATYYCQQTHSFPWTVGQGTKVEIK | 0.676 | 0.000783 | 1.16e+06 | 15 | 6.84 | 0.00503 | 735000 | 2.3 | 0.51 | 69 | 0.48
H4H9665P (antibody, human IgG4, V domains shown, Human IgG4 Fc (H4H)) VH: EVQLVESGGGLVQPGGSLRLSCAASGFTFSNYAMTWVRQAPGKGLEWVSTISGSGDNTYYADSVQGRFTISRGHSKNTLYLQMNSLRAEDTAVYYCAKPTYSRSWYGAFDFWGQGTMVTVSS VL: DIQMTQSPSSVSASVGDRVTITCRASQGISSWLAWYQQKPGKAPQLLIYAASRLQSGVPSRFWGSGSGTDFTLTISSLQPEDFATYYCQQANNFPFTFGPGTKVDIK | 1.19 | 0.00144 | 1.21e+06 | 8 | 1.91 | 0.0021 | 1.1e+06 | 5 | 0.66 | 55 | 0.87
H4H9663P (antibody, human IgG4, V domains shown, Human IgG4 Fc (H4H)) VH: QVQLVQSGAEVKKPGASVKVSCKASGYTFTGHYMYWMRQAPGQGLEWMGWINPNSGGTNYAQKFQDRVTMTRDTSISTAYMELSRLRSDDTAVYYCARGRYGSSWYGGFEYWGQGTLVTVSS VL: DIQMTQSPSSVSASVGDRVTITCRASQGITSWLAWYQQKPGKAPNLLIYAAASLQSGVPSRFSGSGSGTDFTLTISSLQPEDFTTYYCQQAYSLPLTFGGGTKVEIK | 0.677 | 0.00124 | 1.83e+06 | 9 | 2.22 | 0.00361 | 1.62e+06 | 3.2 | 0.54 | 74 | 0.5
H4H9671P (antibody, human IgG4, V domains shown, Human IgG4 Fc (H4H)) VH: EVQLVESGGGLVQPGGSLRLSCAASGFTLRSYFMTWVRQVPGKGLEGVSAISGISGGTYYTDSVKGRFTISRDNSKNTLFLQMNSLRAEDTAVYFCARTVYSSSYYGGFQHWGQGTLVTVSS VL: DIQMTQSPSSVSVSVGDRVTITCRASQGISSWLAWYQQKPGKAPKLLIYVASSLQSGVPSRFSGSGSGTDFTLTISSLQPEDFATYYCQQTNSFPLTFGGGTKVEIK | 0.938 | 0.00114 | 1.21e+06 | 10 | 5.08 | 0.00607 | 1.2e+06 | 1.9 | 0.57 | 46 | 0.46
H4H9667P (antibody, human IgG4, V domains shown, Human IgG4 Fc (H4H)) VH: EVQLVESGGGLVQPGGSLRLSCAASGFTFSTYSMHWVRQAPGKGLEYVSTINNNGDTTYYADSVKGRFTISRDNSKNTLYLQLGSLRPEDMAVYYCARQTYTSSWYGGFDSWGQGTLVTVSS VL: DIQMTQSPSSVSASVGDRVTITCRASQGITSWLAWYQQKPGKAPKLLIYAASNLQSGVPSRFSGSGSGTDFTLTITSLQPEDFATYYCQQANSLPFTFGPGTKVDIK | 0.618 | 0.000603 | 976000 | 19 | 4.66 | 0.00317 | 681000 | 4 | 0.48 | 78 | 0.41
H4H9666P (antibody, human IgG4, V domains shown, Human IgG4 Fc (H4H)) VH: QVQLVQSGAEVKKPGASVKVSCKASGYTFTSYGISWVRQAPGQGLEWMGWIRAYNGYTNYAQKFQGRVTMTTDTSTNTAYMELRTLNSDDTAVYYCARDRYSGSFHGNFDYWGQGTLVTVSS VL: DIQMTQSPSSVSASVGDRVTITCRASQGIFSWLAWYQQKPGKAPKVLIYAASNLESGVPSRFSGSGSGTDFTLTISSLQPEDFATYYCQQANSLPLTFGGGTKVEIK | 0.681 | 0.00077 | 1.13e+06 | 15 | 32.7 | 0.0141 | 432000 | 0.8 | 0.56 | 71 | 0.6
H4H9664P (antibody, human IgG4, V domains shown, Human IgG4 Fc (H4H)) VH: QVQLVESGGGVVQPGRSLRLSCAASGFTFSSYGLHWVRQSPGKGLEWVALISYDGSNKYYADSVKGRFTISRDNSKNTLYLQMNSLRPEDTAGYFCAKSLYTTSWYGGFDYWGQGTLVTVSS VL: DIQMTQSPSSVSASVGDRVTITCRASQGIRSWLAWYQQKPGKAPNLLIYAASSLQSGVPSRFSGSGSGTDFTLTISSLQPEDFATYYCQQANSFPPTFGPGTKVDIK | 1.39 | 0.000721 | 519000 | 16 | 16.2 | 0.00584 | 361000 | 2 | 0.48 | 73 | 0.3
